This note sets out measurements from patent US20080221021A1, “Novel Corticotropin-Releasing Factor Receptor 1 (Crfr1) Agonist” (Max-Planck-Gesellschaft Zur Forderung Der, priority 2004, published 2008).

Test in all cases: competition binding
Holding throughout (details): modification not given

Test [1] concerns the target T1, mouse CRFR2β (mouse), Q60748.
T1 chain: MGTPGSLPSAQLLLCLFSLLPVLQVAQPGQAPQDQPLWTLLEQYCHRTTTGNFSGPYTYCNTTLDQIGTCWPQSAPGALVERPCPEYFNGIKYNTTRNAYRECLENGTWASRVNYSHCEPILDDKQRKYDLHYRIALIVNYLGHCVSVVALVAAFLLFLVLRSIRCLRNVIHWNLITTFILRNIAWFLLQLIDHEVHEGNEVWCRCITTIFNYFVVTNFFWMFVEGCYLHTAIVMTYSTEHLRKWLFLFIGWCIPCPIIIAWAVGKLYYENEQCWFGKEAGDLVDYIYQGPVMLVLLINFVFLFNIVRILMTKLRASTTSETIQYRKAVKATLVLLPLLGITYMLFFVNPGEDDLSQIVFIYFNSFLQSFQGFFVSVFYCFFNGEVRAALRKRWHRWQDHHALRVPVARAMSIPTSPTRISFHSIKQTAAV

In test [2] the target is T2, rat CRFBP C-terminally fused with a His6 sequence (rat), P24388.
T2 chain: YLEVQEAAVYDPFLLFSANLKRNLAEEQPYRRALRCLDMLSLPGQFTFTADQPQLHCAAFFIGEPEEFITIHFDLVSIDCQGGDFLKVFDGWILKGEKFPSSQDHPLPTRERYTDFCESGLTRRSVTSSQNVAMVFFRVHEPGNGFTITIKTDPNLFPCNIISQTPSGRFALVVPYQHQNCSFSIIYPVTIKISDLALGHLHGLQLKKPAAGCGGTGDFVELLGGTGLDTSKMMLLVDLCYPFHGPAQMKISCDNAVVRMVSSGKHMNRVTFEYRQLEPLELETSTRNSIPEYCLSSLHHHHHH

For test [3], the target named is T3, rat CRFR1α (rat), P35353.
T3 chain: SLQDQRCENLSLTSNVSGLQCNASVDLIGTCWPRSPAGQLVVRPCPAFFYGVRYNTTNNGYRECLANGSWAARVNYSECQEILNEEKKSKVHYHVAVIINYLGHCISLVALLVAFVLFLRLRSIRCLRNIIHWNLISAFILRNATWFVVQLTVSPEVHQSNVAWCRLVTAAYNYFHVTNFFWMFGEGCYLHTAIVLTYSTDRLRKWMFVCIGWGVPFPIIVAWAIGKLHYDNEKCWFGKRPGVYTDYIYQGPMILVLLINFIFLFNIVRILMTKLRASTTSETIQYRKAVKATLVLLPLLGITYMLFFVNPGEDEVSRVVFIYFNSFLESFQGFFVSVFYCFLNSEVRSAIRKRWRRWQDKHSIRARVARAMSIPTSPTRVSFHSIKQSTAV

B1: ovine corticotropin-releasing factor (peptide)
chain: SQEPPISLDLTFHLLREVLEMTKADQLAQQAHSNRKLLDIA
As for B1, the 50% inhibitory concentration (IC50) in test [1] was 160 nM; in test [2], 450 nM; in test [3], 1.8 nM.
